B1: chicken PD-1 protein (receptor)
chain: MALGTSRTMWDSTEAALVVLCVLLLCCNPPLAGCHQVTLFPATLTRPAGSSATFICNISMENSSLEFNLNWYQKTNNSNPQKIAGIIRNIPQKKMEKYRLFNNTPVFKMEILNLHQNDSGFYYCGLITFSRSDKVVESSHSQLVVTEAPEKTNTIDEPSEEESSPPDHIKAVLLGTLLLAGVIVLLLFGYIIINNRRADVQKPSSGNTLAEVKPPVVPVPTVDYGVLEFQRDPHSQVPLETCPAEQTEYATIVFPEEKPITPERGKRHKDERTWQLPSQPC
modifications: labeled using the BLUE-NHS protein labeling kit (NanoTemper)

Assays:
chicken PD-L1 protein = chicken PD-L1 protein (chicken); assay: MST
chicken PD-1 protein = biological target: B1; assay: MST

Kd (chicken PD-L1 protein)	Kd (chicken PD-1 protein)	Binder
2.65 nM		B1
	9.73 nM	DAGLYHCLIEYGGADYKTINLK [peptide gDK2-3]

— article PMC11533547 (Poultry Science, 2024)
